Reference: publication PMC8748450

Biological target: apo-LgnD-C1-T1-C2 tridomain (truncated LgnD)
Assay: ITC; LgnA (125 µM) titrated into LgnD or truncated LgnD (25 µM), also into LgnB (concentrations for LgnB not told); thirteen 3 µL injections, 25 °C; one set binding model; MicroCal PEAQ-ITC

Kd: 1700 nM
Substance: LgnA, type II thioesterase (TEII) orthologue (enzyme)
